We go through twelve molecules from patent US20230406885A1, “CYCLIC PEPTIDES FOR TRAPPING INTERLEUKIN-1 BETA” (MERCK SHARP & DOHME LLC, priority 2022, published 2023).

The assay has as its target Recombinant human IL-1β (BioLegend 579404) (human, UniProt P01584 117-269). The experiment in a line: cell-based or functional assay.

*1 amine or outer side, *2 acyl side, *3 side chain or, on linkers, in order; H or OH if unused. [ ]: non-standard residue; d: D form. 3AzaPhe4AcPip = (S)-3-(6-(4-acetylpiperazin-1-yl)pyridin-3-yl)-2-aminopropanoic acid, CC(=O)N1CCN(c2ccc(C[C@H](N[*:1])C(=O)[*:2])cn2)CC1; Trp(4-Cl)(βS-Me) = C[C@@H](c1c[nH]c2cccc(Cl)c12)[C@H](N)C(=O)O; Pro(trans-4-NH2) = O=C([C@@H]1C[C@@H](N[*:3])CN1[*:1])[*:2]; Bip(4'-COOH) = N[C@@H](Cc1ccc(-c2ccc(C(=O)O)cc2)cc1)C(=O)O; Phe(3-CH2NH2) = O=C([C@H](Cc1cccc(CN[*:3])c1)N[*:1])[*:2]; 1Nal(3S-Me) = C[C@@H](c1cccc2ccccc12)[C@H](N)C(=O)O; Phe(4-COOH) = N[C@@H](Cc1ccc(C(=O)O)cc1)C(=O)O; Phe(4-CH2NH2) = NCc1ccc(C[C@H](N)C(=O)O)cc1; Phe(3-NH2) = Nc1cccc(C[C@H](N)C(=O)O)c1; Phe(4-NH2) = Nc1ccc(C[C@H](N)C(=O)O)cc1; hTyr = N[C@@H](CCc1ccc(O)cc1)C(=O)O; dDab = NCC[C@@H](N)C(=O)O; Orn = NCCC[C@H](N)C(=O)O; dNMeA = CN[C@H](C)C(=O)O; Dap = NC[C@H](N)C(=O)O

B1: SEQ ID NO: 51 (peptide)
peptide: cyclo([Bip(4'-COOH)]W[Phe(4-COOH)]G[Pro(trans-4-NH2)][Trp(4-Cl)(βS-Me)]D[dNMeA]G[Bip(4'-COOH)][Phe(4-CH2NH2)]S[dA][hTyr])
SMILES: C[C@@H]1C(=O)NCC(=O)N[C@@H](Cc2ccc(-c3ccc(C(=O)O)cc3)cc2)C(=O)N[C@@H](Cc2ccc(CN)cc2)C(=O)N[C@@H](CO)C(=O)N[C@H](C)C(=O)N[C@@H](CCc2ccc(O)cc2)C(=O)N[C@@H](Cc2ccc(-c3ccc(C(=O)O)cc3)cc2)C(=O)N[C@@H](Cc2c[nH]c3ccccc23)C(=O)N[C@@H](Cc2ccc(C(=O)O)cc2)C(=O)NCC(=O)N2C[C@H](N)C[C@H]2C(=O)N[C@@H]([C@@H](C)c2c[nH]c3cccc(Cl)c23)C(=O)N[C@@H](CC(=O)O)C(=O)N1C
Consider B1, for which the “MRC5 IC50” value amounted to 0.32 nM.

B2: SEQ ID NO: 56 (peptide)
peptide: cyclo([Bip(4'-COOH)]W[Phe(4-COOH)]G[Pro(trans-4-NH2)][Trp(4-Cl)(βS-Me)]N[dNMeA]G[Bip(4'-COOH)]WG[dDab][hTyr])
SMILES: C[C@@H]1C(=O)NCC(=O)N[C@@H](Cc2ccc(-c3ccc(C(=O)O)cc3)cc2)C(=O)N[C@@H](Cc2c[nH]c3ccccc23)C(=O)NCC(=O)N[C@H](CCN)C(=O)N[C@@H](CCc2ccc(O)cc2)C(=O)N[C@@H](Cc2ccc(-c3ccc(C(=O)O)cc3)cc2)C(=O)N[C@@H](Cc2c[nH]c3ccccc23)C(=O)N[C@@H](Cc2ccc(C(=O)O)cc2)C(=O)NCC(=O)N2C[C@H](N)C[C@H]2C(=O)N[C@@H]([C@@H](C)c2c[nH]c3cccc(Cl)c23)C(=O)N[C@@H](CC(N)=O)C(=O)N1C
As for B2, the “MRC5 IC50” value was determined as 0.0207 nM.

B3: SEQ ID NO: 5 (peptide)
peptide: cyclo([3AzaPhe4AcPip]W[Phe(4-COOH)]G[Pro(trans-4-NH2)][1Nal(3S-Me)]D[dNMeA]G[Bip(4'-COOH)]W[Dap][dA][hTyr])
SMILES: CC(=O)N1CCN(c2ccc(C[C@@H]3NC(=O)[C@H](CCc4ccc(O)cc4)NC(=O)[C@@H](C)NC(=O)[C@H](CN)NC(=O)[C@H](Cc4c[nH]c5ccccc45)NC(=O)[C@H](Cc4ccc(-c5ccc(C(=O)O)cc5)cc4)NC(=O)CNC(=O)[C@@H](C)N(C)C(=O)[C@H](CC(=O)O)NC(=O)[C@H]([C@@H](C)c4cccc5ccccc45)NC(=O)[C@@H]4C[C@@H](N)CN4C(=O)CNC(=O)[C@H](Cc4ccc(C(=O)O)cc4)NC(=O)[C@H](Cc4c[nH]c5ccccc45)NC3=O)cn2)CC1
In the case of B3, the “MRC5 IC50” value worked out at 0.674 nM.

B4: SEQ ID NO: 48 (peptide)
peptide: cyclo([Bip(4'-COOH)]W[Phe(4-COOH)]G[Pro(trans-4-NH2)][Trp(4-Cl)(βS-Me)]D[dNMeA]G[Bip(4'-COOH)][Phe(3-CH2NH2)]S[dA][hTyr])
SMILES: C[C@@H]1C(=O)NCC(=O)N[C@@H](Cc2ccc(-c3ccc(C(=O)O)cc3)cc2)C(=O)N[C@@H](Cc2cccc(CN)c2)C(=O)N[C@@H](CO)C(=O)N[C@H](C)C(=O)N[C@@H](CCc2ccc(O)cc2)C(=O)N[C@@H](Cc2ccc(-c3ccc(C(=O)O)cc3)cc2)C(=O)N[C@@H](Cc2c[nH]c3ccccc23)C(=O)N[C@@H](Cc2ccc(C(=O)O)cc2)C(=O)NCC(=O)N2C[C@H](N)C[C@H]2C(=O)N[C@@H]([C@@H](C)c2c[nH]c3cccc(Cl)c23)C(=O)N[C@@H](CC(=O)O)C(=O)N1C
Take B4: the “MRC5 IC50” value stood at 0.041 nM.

B5: SEQ ID NO: 53 (peptide)
peptide: cyclo([Bip(4'-COOH)]W[Phe(4-COOH)]G[Pro(trans-4-NH2)][Trp(4-Cl)(βS-Me)]D[dNMeA]G[Bip(4'-COOH)]W[Dap][dA][hTyr])
SMILES: C[C@@H]1C(=O)NCC(=O)N[C@@H](Cc2ccc(-c3ccc(C(=O)O)cc3)cc2)C(=O)N[C@@H](Cc2c[nH]c3ccccc23)C(=O)N[C@@H](CN)C(=O)N[C@H](C)C(=O)N[C@@H](CCc2ccc(O)cc2)C(=O)N[C@@H](Cc2ccc(-c3ccc(C(=O)O)cc3)cc2)C(=O)N[C@@H](Cc2c[nH]c3ccccc23)C(=O)N[C@@H](Cc2ccc(C(=O)O)cc2)C(=O)NCC(=O)N2C[C@H](N)C[C@H]2C(=O)N[C@@H]([C@@H](C)c2c[nH]c3cccc(Cl)c23)C(=O)N[C@@H](CC(=O)O)C(=O)N1C
In the case of B5, the “MRC5 IC50” value came to 0.0418 nM.

B6: SEQ ID NO: 46 (peptide)
peptide: cyclo([Bip(4'-COOH)]W[Phe(4-COOH)]G[Pro(trans-4-NH2)][Trp(4-Cl)(βS-Me)]D[dNMeA]G[Bip(4'-COOH)]KS[dDab][hTyr])
SMILES: C[C@@H]1C(=O)NCC(=O)N[C@@H](Cc2ccc(-c3ccc(C(=O)O)cc3)cc2)C(=O)N[C@@H](CCCCN)C(=O)N[C@@H](CO)C(=O)N[C@H](CCN)C(=O)N[C@@H](CCc2ccc(O)cc2)C(=O)N[C@@H](Cc2ccc(-c3ccc(C(=O)O)cc3)cc2)C(=O)N[C@@H](Cc2c[nH]c3ccccc23)C(=O)N[C@@H](Cc2ccc(C(=O)O)cc2)C(=O)NCC(=O)N2C[C@H](N)C[C@H]2C(=O)N[C@@H]([C@@H](C)c2c[nH]c3cccc(Cl)c23)C(=O)N[C@@H](CC(=O)O)C(=O)N1C
Consider B6, for which the “MRC5 IC50” value amounted to 0.134 nM.

B7: SEQ ID NO: 50 (peptide)
peptide: cyclo([Bip(4'-COOH)]W[Phe(4-COOH)]G[Pro(trans-4-NH2)][Trp(4-Cl)(βS-Me)]D[dNMeA]G[Bip(4'-COOH)][Phe(3-NH2)]S[dA][hTyr])
SMILES: C[C@@H]1C(=O)NCC(=O)N[C@@H](Cc2ccc(-c3ccc(C(=O)O)cc3)cc2)C(=O)N[C@@H](Cc2cccc(N)c2)C(=O)N[C@@H](CO)C(=O)N[C@H](C)C(=O)N[C@@H](CCc2ccc(O)cc2)C(=O)N[C@@H](Cc2ccc(-c3ccc(C(=O)O)cc3)cc2)C(=O)N[C@@H](Cc2c[nH]c3ccccc23)C(=O)N[C@@H](Cc2ccc(C(=O)O)cc2)C(=O)NCC(=O)N2C[C@H](N)C[C@H]2C(=O)N[C@@H]([C@@H](C)c2c[nH]c3cccc(Cl)c23)C(=O)N[C@@H](CC(=O)O)C(=O)N1C
For B7, the “MRC5 IC50” value stood at 0.52 nM.

B8: SEQ ID NO: 49 (peptide)
peptide: cyclo([Bip(4'-COOH)]W[Phe(4-COOH)]G[Pro(trans-4-NH2)][Trp(4-Cl)(βS-Me)]D[dNMeA]G[Bip(4'-COOH)][Orn]S[dA][hTyr])
SMILES: C[C@@H]1C(=O)NCC(=O)N[C@@H](Cc2ccc(-c3ccc(C(=O)O)cc3)cc2)C(=O)N[C@@H](CCCN)C(=O)N[C@@H](CO)C(=O)N[C@H](C)C(=O)N[C@@H](CCc2ccc(O)cc2)C(=O)N[C@@H](Cc2ccc(-c3ccc(C(=O)O)cc3)cc2)C(=O)N[C@@H](Cc2c[nH]c3ccccc23)C(=O)N[C@@H](Cc2ccc(C(=O)O)cc2)C(=O)NCC(=O)N2C[C@H](N)C[C@H]2C(=O)N[C@@H]([C@@H](C)c2c[nH]c3cccc(Cl)c23)C(=O)N[C@@H](CC(=O)O)C(=O)N1C
Turning to B8, the “MRC5 IC50” value was found to be 0.402 nM.

B9: SEQ ID NO: 52 (peptide)
peptide: cyclo([Bip(4'-COOH)]W[Phe(4-COOH)]G[Pro(trans-4-NH2)][Trp(4-Cl)(βS-Me)]D[dNMeA]G[Bip(4'-COOH)][Phe(4-NH2)]S[dA][hTyr])
SMILES: C[C@@H]1C(=O)NCC(=O)N[C@@H](Cc2ccc(-c3ccc(C(=O)O)cc3)cc2)C(=O)N[C@@H](Cc2ccc(N)cc2)C(=O)N[C@@H](CO)C(=O)N[C@H](C)C(=O)N[C@@H](CCc2ccc(O)cc2)C(=O)N[C@@H](Cc2ccc(-c3ccc(C(=O)O)cc3)cc2)C(=O)N[C@@H](Cc2c[nH]c3ccccc23)C(=O)N[C@@H](Cc2ccc(C(=O)O)cc2)C(=O)NCC(=O)N2C[C@H](N)C[C@H]2C(=O)N[C@@H]([C@@H](C)c2c[nH]c3cccc(Cl)c23)C(=O)N[C@@H](CC(=O)O)C(=O)N1C
B9: the “MRC5 IC50” value is 0.454 nM.

B10: SEQ ID NO: 54 (peptide)
peptide: cyclo([Bip(4'-COOH)]W[Phe(4-COOH)]G[Pro(trans-4-NH2)][Trp(4-Cl)(βS-Me)]D[dNMeA]G[Bip(4'-COOH)]WG[dDab][hTyr])
SMILES: C[C@@H]1C(=O)NCC(=O)N[C@@H](Cc2ccc(-c3ccc(C(=O)O)cc3)cc2)C(=O)N[C@@H](Cc2c[nH]c3ccccc23)C(=O)NCC(=O)N[C@H](CCN)C(=O)N[C@@H](CCc2ccc(O)cc2)C(=O)N[C@@H](Cc2ccc(-c3ccc(C(=O)O)cc3)cc2)C(=O)N[C@@H](Cc2c[nH]c3ccccc23)C(=O)N[C@@H](Cc2ccc(C(=O)O)cc2)C(=O)NCC(=O)N2C[C@H](N)C[C@H]2C(=O)N[C@@H]([C@@H](C)c2c[nH]c3cccc(Cl)c23)C(=O)N[C@@H](CC(=O)O)C(=O)N1C
In the case of B10, the “MRC5 IC50” value is 0.0692 nM.

B11: SEQ ID NO: 55 (peptide)
peptide: cyclo([Bip(4'-COOH)]W[Phe(4-COOH)]G[Pro(trans-4-NH2)][Trp(4-Cl)(βS-Me)]E[dNMeA]G[Bip(4'-COOH)]WG[dDab][hTyr])
SMILES: C[C@@H]1C(=O)NCC(=O)N[C@@H](Cc2ccc(-c3ccc(C(=O)O)cc3)cc2)C(=O)N[C@@H](Cc2c[nH]c3ccccc23)C(=O)NCC(=O)N[C@H](CCN)C(=O)N[C@@H](CCc2ccc(O)cc2)C(=O)N[C@@H](Cc2ccc(-c3ccc(C(=O)O)cc3)cc2)C(=O)N[C@@H](Cc2c[nH]c3ccccc23)C(=O)N[C@@H](Cc2ccc(C(=O)O)cc2)C(=O)NCC(=O)N2C[C@H](N)C[C@H]2C(=O)N[C@@H]([C@@H](C)c2c[nH]c3cccc(Cl)c23)C(=O)N[C@@H](CCC(=O)O)C(=O)N1C
Take B11: the “MRC5 IC50” value came out at 0.0493 nM.

B12: SEQ ID NO: 47 (peptide)
peptide: cyclo([Bip(4'-COOH)]W[Phe(4-COOH)]G[Pro(trans-4-NH2)][Trp(4-Cl)(βS-Me)]D[dNMeA]G[Bip(4'-COOH)]KS[dS][hTyr])
SMILES: C[C@@H]1C(=O)NCC(=O)N[C@@H](Cc2ccc(-c3ccc(C(=O)O)cc3)cc2)C(=O)N[C@@H](CCCCN)C(=O)N[C@@H](CO)C(=O)N[C@H](CO)C(=O)N[C@@H](CCc2ccc(O)cc2)C(=O)N[C@@H](Cc2ccc(-c3ccc(C(=O)O)cc3)cc2)C(=O)N[C@@H](Cc2c[nH]c3ccccc23)C(=O)N[C@@H](Cc2ccc(C(=O)O)cc2)C(=O)NCC(=O)N2C[C@H](N)C[C@H]2C(=O)N[C@@H]([C@@H](C)c2c[nH]c3cccc(Cl)c23)C(=O)N[C@@H](CC(=O)O)C(=O)N1C
With B12, the “MRC5 IC50” value turned out to be 0.123 nM.
